The results in this text go back to article PMC11375965 (Nature, 2024).

This data set concerns the molecule itself. The data set is described as follows: cryo-EM structure.

B1: human INF2 (inverted formin-2) residues 469-1249 (domain or fragment)
chain: not shown
As to B1, the binding result is recorded as “binds”.
